The values below come from publication PMC314469, “Protein Interaction Networks by Proteome Peptide Scanning” (PLoS Biology, 2004).

B1: 256-269 mitochondrial ribosomal protein L2 of the large subunit (peptide)
chain: GITPVGPGKFSRSA
B2: 172-185 homologous to Ssf2p;possibly involved in mating (peptide)
chain: IFPPLNPARTSLNS
B3: 219-232 component of cytoplasmic chaperonin complex (peptide)
chain: GRHPDMPTRVKNAY
B4: 106-119 " mRNA guanylyltransferase (mRNA capping enzyme), alpha subunit" (peptide)
chain: FRFPRLPQKKKEEL
B5: 64-77 Transcription factor (fork head domain) (peptide)
chain: HSSPIAPSKAKRQR
B6: 517-530 Hypothetical ORF (peptide)
chain: IMPPPKPFRHGLDS
B7: 496-509 Hypothetical ORF (peptide)
chain: IFDPQDPYRRAQQF
B8: 1426-1439 Hypothetical ORF (peptide)
chain: GYDPTDPNRPKVTK
B9: 377-390 lysyl-tRNA synthetase (peptide)
chain: HPDPADPAKELELN
B10: 440-453 protoporphyrinogen oxidase (peptide)
chain: HGVPVVPSREVTIN
B11: 459-472 Hypothetical ORF (peptide)
chain: ILLPPLPERAYIMD
B12: 307-320 " Twinfilin A, an actin monomer sequestering protein" (peptide)
chain: GSNPDLPNKSNLKF
B13: 61-74 (putative) involved in DNA replication (peptide)
chain: IEVPQSPTKNRVKV
B14: 171-184 protein required for Clb2 and Ase1 degradation (peptide)
chain: HSTPVTPRRLFTSQ
B15: 193-206 subunit of a cytoplasmic histone acetyltransferase (peptide)
chain: GGDPTKPVRTWNDL
B16: 144-157 nuclear shuttling protein with an RNA recognition motif (peptide)
chain: IFGPFGPMKEVKIL
B17: 587-600 Hypothetical ORF (peptide)
chain: FLPPPKPFRHTETK
B18: 509-522 Weak similarity to Pta1p (pre-tRNA processing protein) (peptide)
chain: IIFPYDPLKLGTHA
B19: 310-323 H+-biotin symporter (peptide)
chain: FVIPGVPSKSYSLF
B20: 1469-1482 Hypothetical ORF (peptide)
chain: GYDPTDPSRPRINE
B21: 84-97 chitin synthase 2 (peptide)
chain: HNSPVAPNRYAANL
B22: 390-403 serine/threonine-rich membrane protein (peptide)
chain: IPTPSKPLKKRKKR
B23: 170-183 Possible RNA binding protein. Homolog of Whi3. (peptide)
chain: IFGPSFPFRSHIDV
B24: 408-421 mitochondrial and cytoplasmic valyl-tRNA synthetase (peptide)
chain: IQHPFLPRKIPIIT
B25: 476-489 Mitochondrial outer membrane protein involved in mitochondrial morphology and inheritance (peptide)
chain: GNIPVFPAKFGIQF
B26: 471-484 Hypothetical ORF (peptide)
chain: FISPHLPMKGRLVL
B27: 264-277 AP endonuclease (peptide)
chain: IINPDTPHRRIFNQ
B28: 171-184 " 1,4-glucan-6-(1,4-glucano)-transferase" (peptide)
chain: FWNPENPYKFVHPR
B29: 440-453 Hypothetical ORF (peptide)
chain: FPYPFKPSRVGVKY
B30: 657-670 Hypothetical ORF (peptide)
chain: FQPPPKPFRRSQSS
B31: 44-57 Hexose transporter (peptide)
chain: GNTPDAPKRGFLGY
B32: 862-875 Pho85 kinase inhibitor (peptide)
chain: FPYPGNPLKIINYE
B33: 379-392 Hypothetical ORF (peptide)
chain: GGQPPVPVRMQPQP
B34: 66-79 vacuolar alpha mannosidase (peptide)
chain: GSSPVSPDKRPSWK
B35: 653-666 heat shock transcription factor (peptide)
chain: ILSPGYPNKSFNNK
B36: 138-151 Hypothetical ORF (peptide)
chain: ILKPDIPLRNMLLR
B37: 124-137 Unknown (peptide)
chain: GAKPKIPSKLYQSV
B38: 375-388 transcription factor (peptide)
chain: FPDPNNPSKVQIRM
B39: 316-329 " Yeast homologue of mammalian GRASP proteins, also localised to the Golgi apparatus." (peptide)
chain: FTAPPVPTKKKSKN
B40: 91-104 phosphatidylserine decarboxylase located in vacuole or Golgi (peptide)
chain: GAPPTTPSRPRTTT
B41: 171-184 Hypothetical ORF (peptide)
chain: IIIPPIPSKHSLLK
B42: 704-717 vitamin B12-(cobalamin)-independent isozyme of methionine synthase (also called N5-methyltetrahydrofolate homocysteine m (peptide)
chain: IHSPRIPSKDEFIA
B43: 112-125 Hypothetical ORF (peptide)
chain: FFHPAIPLKNAAPF
B44: 526-539 " Putative integral membrane protein containing novel cysteine motif. Similarity to SLG1 (WSC1), WSC2 and WSC3" (peptide)
chain: FHDPILPRRTSTFL
B45: 340-353 isopropylmalate isomerase (peptide)
chain: GLEPNTPLKSIKVD
B46: 316-329 PLasmid Maintenance (peptide)
chain: INQPSTPKKLKRKS
B47: 207-220 34kDa subunit of the tetrameric tRNA splicing endonuclease (peptide)
chain: IAYPGDPLRFHSHL
B48: 631-644 dual specificity protein phosphatase (peptide)
chain: IAHPVRPHRAITMT
B49: 192-205 " contains 3 SH3 domains, interacts with Bee1p" (peptide)
chain: GPPPAMPARPTATT
B50: 393-406 Actin binding protein (peptide)
chain: FSKPQEPVKAEEAE
B51: 71-84 Nuclear protein that binds to T-rich strand of core consensus sequence of autonomously replicating sequence (peptide)
chain: GVYPSRPEKTYDYS
B52: 1268-1281 protein kinase (peptide)
chain: GRIPQLPNRDEMTA
B53: 112-125 Cell cycle-dependent filament between nuclei (peptide)
chain: IIFPTSPTKLTFSN
B54: 32-45 Hypothetical ORF (peptide)
chain: IAYPFYPFKKLGRQ
B55: 241-254 RNA polymerase II mediator subunit (peptide)
chain: IAAPKKPRKPRQTK

Sequence of Sho1 SH3 (SHO1_YEAST), P40073 (P40073 295-366): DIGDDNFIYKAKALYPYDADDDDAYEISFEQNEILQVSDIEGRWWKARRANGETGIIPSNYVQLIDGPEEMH

This experiment has as its target Sho1 SH3 (SHO1_YEAST), P40073. Nature of the experiment: SPOT array.
In the case of B1, the normalised SPOT signal, Boehringer light units (BLU); mean over the file's lines of this peptide was determined as 156.

For the molecule B2, the normalised SPOT signal, Boehringer light units (BLU); mean over the file's lines of this peptide was 87.7.

Take B3: the normalised SPOT signal, Boehringer light units (BLU); mean over the file's lines of this peptide came to 189.

Molecule B4 had a normalised SPOT signal, Boehringer light units (BLU); mean over the file's lines of this peptide of 773.

Consider B5, for which the normalised SPOT signal, Boehringer light units (BLU); mean over the file's lines of this peptide was found to be 201.

B6 displayed a normalised SPOT signal, Boehringer light units (BLU); mean over the file's lines of this peptide of 8750.

As for B7, the normalised SPOT signal, Boehringer light units (BLU); mean over the file's lines of this peptide is 48.8.

In the case of B8, the normalised SPOT signal, Boehringer light units (BLU); mean over the file's lines of this peptide is 158.

For B9, the normalised SPOT signal, Boehringer light units (BLU); mean over the file's lines of this peptide is 202.

In turn, B10 yielded a normalised SPOT signal, Boehringer light units (BLU); mean over the file's lines of this peptide of 139.

Take B11: the normalised SPOT signal, Boehringer light units (BLU); mean over the file's lines of this peptide was found to be 242.

Molecule B12 yielded a normalised SPOT signal, Boehringer light units (BLU); mean over the file's lines of this peptide of 140.

Consider B13, for which the normalised SPOT signal, Boehringer light units (BLU); mean over the file's lines of this peptide came out at 141.

Regarding B14, the normalised SPOT signal, Boehringer light units (BLU); mean over the file's lines of this peptide is 240.

B15 registered a normalised SPOT signal, Boehringer light units (BLU); mean over the file's lines of this peptide of 112.

On to B16, for which the normalised SPOT signal, Boehringer light units (BLU); mean over the file's lines of this peptide was 250.

In turn, B17 displayed a normalised SPOT signal, Boehringer light units (BLU); mean over the file's lines of this peptide of 483.

In the case of B18, the normalised SPOT signal, Boehringer light units (BLU); mean over the file's lines of this peptide turned out to be 113.

For B19, the normalised SPOT signal, Boehringer light units (BLU); mean over the file's lines of this peptide amounted to 284.

In the case of B20, the normalised SPOT signal, Boehringer light units (BLU); mean over the file's lines of this peptide was 119.

B21 registered a normalised SPOT signal, Boehringer light units (BLU); mean over the file's lines of this peptide of 103.

Turning to B22, the normalised SPOT signal, Boehringer light units (BLU); mean over the file's lines of this peptide was found to be 86.1.

Molecule B23 showed a normalised SPOT signal, Boehringer light units (BLU); mean over the file's lines of this peptide of 182.

For B24, the normalised SPOT signal, Boehringer light units (BLU); mean over the file's lines of this peptide was found to be 164.

In turn, B25 displayed a normalised SPOT signal, Boehringer light units (BLU); mean over the file's lines of this peptide of 213.

Consider B26, for which the normalised SPOT signal, Boehringer light units (BLU); mean over the file's lines of this peptide was determined as 441.

As for B27, the normalised SPOT signal, Boehringer light units (BLU); mean over the file's lines of this peptide was determined as 174.

On to B28, for which the normalised SPOT signal, Boehringer light units (BLU); mean over the file's lines of this peptide was 129.

As for B29, the normalised SPOT signal, Boehringer light units (BLU); mean over the file's lines of this peptide worked out at 121.

As to B30, the normalised SPOT signal, Boehringer light units (BLU); mean over the file's lines of this peptide is 884.

As to B31, the normalised SPOT signal, Boehringer light units (BLU); mean over the file's lines of this peptide stood at 45.5.

The molecule B32 showed a normalised SPOT signal, Boehringer light units (BLU); mean over the file's lines of this peptide of 214.

Molecule B33 displayed a normalised SPOT signal, Boehringer light units (BLU); mean over the file's lines of this peptide of 120.

Turning to B34, the normalised SPOT signal, Boehringer light units (BLU); mean over the file's lines of this peptide was found to be 60.3.

Take B35: the normalised SPOT signal, Boehringer light units (BLU); mean over the file's lines of this peptide was determined as 129.

In turn, B36 registered a normalised SPOT signal, Boehringer light units (BLU); mean over the file's lines of this peptide of 159.

B37 yielded a normalised SPOT signal, Boehringer light units (BLU); mean over the file's lines of this peptide of 145.

Take B38: the normalised SPOT signal, Boehringer light units (BLU); mean over the file's lines of this peptide stood at 166.

With B39, the normalised SPOT signal, Boehringer light units (BLU); mean over the file's lines of this peptide amounted to 4360.

Take B40: the normalised SPOT signal, Boehringer light units (BLU); mean over the file's lines of this peptide amounted to 29.2.

As for B41, the normalised SPOT signal, Boehringer light units (BLU); mean over the file's lines of this peptide worked out at 352.

B42 came in with a normalised SPOT signal, Boehringer light units (BLU); mean over the file's lines of this peptide of 94.7.

Take B43: the normalised SPOT signal, Boehringer light units (BLU); mean over the file's lines of this peptide is 162.

In turn, B44 came in with a normalised SPOT signal, Boehringer light units (BLU); mean over the file's lines of this peptide of 275.

The molecule B45 yielded a normalised SPOT signal, Boehringer light units (BLU); mean over the file's lines of this peptide of 139.

In turn, B46 gave a normalised SPOT signal, Boehringer light units (BLU); mean over the file's lines of this peptide of 141.

As for B47, the normalised SPOT signal, Boehringer light units (BLU); mean over the file's lines of this peptide amounted to 174.

Molecule B48 displayed a normalised SPOT signal, Boehringer light units (BLU); mean over the file's lines of this peptide of 112.

Molecule B49 came in with a normalised SPOT signal, Boehringer light units (BLU); mean over the file's lines of this peptide of 89.9.

For the molecule B50, the normalised SPOT signal, Boehringer light units (BLU); mean over the file's lines of this peptide is 257.

For the molecule B51, the normalised SPOT signal, Boehringer light units (BLU); mean over the file's lines of this peptide was determined as 109.

Regarding B52, the normalised SPOT signal, Boehringer light units (BLU); mean over the file's lines of this peptide was determined as 39.3.

Molecule B53 gave a normalised SPOT signal, Boehringer light units (BLU); mean over the file's lines of this peptide of 125.

For the molecule B54, the normalised SPOT signal, Boehringer light units (BLU); mean over the file's lines of this peptide stood at 59.4.

As to B55, the normalised SPOT signal, Boehringer light units (BLU); mean over the file's lines of this peptide worked out at 327.
